Common to all, as to experiment: MST
For data set [1], the target named is T1, EXOG-ΔC68 (human, UniProt Q9Y2C4 59-300).
T1 sequence: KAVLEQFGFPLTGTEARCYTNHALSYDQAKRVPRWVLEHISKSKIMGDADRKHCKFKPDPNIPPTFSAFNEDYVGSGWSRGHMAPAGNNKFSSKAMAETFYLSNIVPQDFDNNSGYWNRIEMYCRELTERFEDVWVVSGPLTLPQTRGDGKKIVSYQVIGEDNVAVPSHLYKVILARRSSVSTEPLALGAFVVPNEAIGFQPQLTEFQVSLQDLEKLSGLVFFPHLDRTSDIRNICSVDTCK

For data set [2], the target named is T2, EXOG (EXOG-ΔN58) (human, UniProt Q9Y2C4 59-368).
T2 sequence: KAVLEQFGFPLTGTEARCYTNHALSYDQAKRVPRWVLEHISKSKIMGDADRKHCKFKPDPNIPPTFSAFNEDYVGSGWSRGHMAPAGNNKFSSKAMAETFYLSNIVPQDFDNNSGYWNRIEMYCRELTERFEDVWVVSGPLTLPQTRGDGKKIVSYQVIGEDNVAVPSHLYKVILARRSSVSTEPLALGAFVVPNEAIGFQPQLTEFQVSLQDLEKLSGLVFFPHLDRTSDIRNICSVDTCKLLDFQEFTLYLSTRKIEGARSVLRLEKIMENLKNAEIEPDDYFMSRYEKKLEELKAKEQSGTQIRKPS

The target of data set [3] is T1, EXOG-ΔC68. This is another data set of the same source.

B1: ssDNA 16-mer O10 (ssDNA)
DNA: AGTTCGTTATCGTCGC
Take B1: the binding result in data set [1] was “no binding”. Further, in data set [2], binding was characterised by a dissociation constant (Kd) of 25.1 ± 4.5 nM.

B2: ssRNA 16-mer O11 (ssRNA)
RNA: AGUUCGUUAUCGUCGC
Take B2: in data set [3], binding was put at a Kd of 155 ± 31.9 nM.

What is called Kd is the free concentration of one partner at which half of the binding sites on the other are occupied at equilibrium, for simple one-to-one binding. A lower Kd goes with a tighter complex.

(Values after paper PMC11880807.)
